These results are taken from doi:10.1101/2021.05.05.442573, “Relief of ParB autoinhibition by parS DNA catalysis and ParB recycling by CTP hydrolysis promote bacterial centromere assembly” (bioRxiv, 2021).

First the molecules themselves.
B1: ParB(R105C, H133C), purified (natural protein, B. subtilis, UniProt P26497 1-282, looked up)
chain: MAKGLGKGINALFNQVDLSEETVEEIKIADLRPNPYQPRKHFDDEALAELKESVLQHGILQPLIVRKSLKGYDIVAGERRFRAAKLAGLDTVPAIVRELSEALMCEIALLENLQREDLSPLEEAQAYDSLLKCLDLTQEQLAKRLGKSRPHIANHLRLLTLPENIQQLIAEGTLSMGHGRTLLGLKNKNKLEPLVQKVIAEQLNVRQLEQLIQQLNQNVPRETKKKEPVKDAVLKERESYLQNYFGTTVNIKRQKKKGKIEIEFFSNEDLDRILELLSERES
notes: Purification as in Soh et al., 2019; source: E. coli BL21-Gold (DE3), untagged, purified (ammonium sulfate, heparin, HiTrap SP, Superdex 200)
B2: ParB(A102C, H133C), purified (natural protein, B. subtilis, UniProt P26497 1-282, looked up)
chain: MAKGLGKGINALFNQVDLSEETVEEIKIADLRPNPYQPRKHFDDEALAELKESVLQHGILQPLIVRKSLKGYDIVAGERRFRAAKLAGLDTVPAIVRELSECLMREIALLENLQREDLSPLEEAQAYDSLLKCLDLTQEQLAKRLGKSRPHIANHLRLLTLPENIQQLIAEGTLSMGHGRTLLGLKNKNKLEPLVQKVIAEQLNVRQLEQLIQQLNQNVPRETKKKEPVKDAVLKERESYLQNYFGTTVNIKRQKKKGKIEIEFFSNEDLDRILELLSERES
notes: as for B1
B3: ParB(T22C), purified (natural protein, B. subtilis, UniProt P26497 1-282, looked up)
chain: MAKGLGKGINALFNQVDLSEECVEEIKIADLRPNPYQPRKHFDDEALAELKESVLQHGILQPLIVRKSLKGYDIVAGERRFRAAKLAGLDTVPAIVRELSEALMREIALLENLQREDLSPLEEAQAYDSLLKHLDLTQEQLAKRLGKSRPHIANHLRLLTLPENIQQLIAEGTLSMGHGRTLLGLKNKNKLEPLVQKVIAEQLNVRQLEQLIQQLNQNVPRETKKKEPVKDAVLKERESYLQNYFGTTVNIKRQKKKGKIEIEFFSNEDLDRILELLSERES
notes: as for B1
B4: ParB(T22C, E111Q), purified (natural protein, B. subtilis, UniProt P26497 1-282, looked up)
chain: MAKGLGKGINALFNQVDLSEECVEEIKIADLRPNPYQPRKHFDDEALAELKESVLQHGILQPLIVRKSLKGYDIVAGERRFRAAKLAGLDTVPAIVRELSEALMREIALLQNLQREDLSPLEEAQAYDSLLKHLDLTQEQLAKRLGKSRPHIANHLRLLTLPENIQQLIAEGTLSMGHGRTLLGLKNKNKLEPLVQKVIAEQLNVRQLEQLIQQLNQNVPRETKKKEPVKDAVLKERESYLQNYFGTTVNIKRQKKKGKIEIEFFSNEDLDRILELLSERES
notes: the combination is not spelled out for the purified protein; also called EQ mutant; source: E. coli BL21-Gold (DE3), untagged, purified (ammonium sulfate, heparin, HiTrap SP, Superdex 200)
B5: ParB(T22C, E78Q), purified (natural protein, B. subtilis, UniProt P26497 1-282, looked up)
chain: MAKGLGKGINALFNQVDLSEECVEEIKIADLRPNPYQPRKHFDDEALAELKESVLQHGILQPLIVRKSLKGYDIVAGQRRFRAAKLAGLDTVPAIVRELSEALMREIALLENLQREDLSPLEEAQAYDSLLKHLDLTQEQLAKRLGKSRPHIANHLRLLTLPENIQQLIAEGTLSMGHGRTLLGLKNKNKLEPLVQKVIAEQLNVRQLEQLIQQLNQNVPRETKKKEPVKDAVLKERESYLQNYFGTTVNIKRQKKKGKIEIEFFSNEDLDRILELLSERES
notes: as for B4

The data set concerns the molecule itself. Description: cross-linking; in vitro BMOE cysteine cross-linking of purified ParB (10 uM monomer, 1 mM BMOE, 5 min RT; 150 mM NaCl, 50 mM Tris-HCl pH 7.5, 5 mM MgCl2); without ligand, with 1 mM CTP or CTPγS, with 1 uM 40 bp parS DNA, or with both; SDS-PAGE, Coomassie.
With B1, the binding result was “binds”.

Turning to B2, the binding result is given as “binds”.

On to B3, for which the binding result is given as “binds”.

With B4, the binding result is “binds”.

Take B5: the binding result is on record as “binds”.
